B1: Mycobacterium tuberculosis σ^A (Strep-tag II-σ^A, co-expressed with WhiB7) (natural protein)
chain: AATKASTATDEPVKRTATKSPAASASGAKTGAKRTAAKSASGSPPAKRATKPAARSVKPASAPQDTTTSTIPKRKTRAAAKSAAAKAPSARGHATKPRAPKDAQHEAATDPEDALDSVEELDAEPDLDVEPGEDLDLDAADLNLDDLEDDVAPDADDDLDSGDDEDHEDLEAEAAVAPGQTADDDEEIAEPTEKDKASGDFVWDEDESEALRQARKDAELTASADSVRAYLKQIGKVALLNAEEEVELAKRIEAGLYATQLMTELSERGEKLPAAQRRDMMWICRDGDRAKNHLLEANLRLVVSLAKRYTGRGMAFLDLIQEGNLGLIRAVEKFDYTKGYKFSTYATWWIRQAITRAMADQARTIRIPVHMVEVINKLGRIQRELLQDLGREPTPEELAKEMDITPEKVLEIQQYAREPISLDQTIGDEGDSQLGDFIEDSEAVVAVDAVSFTLLQDQLQSVLDTLSEREAGVVRLRFGLTDGQPRTLDEIGQVYGVTRERIRQIESKTMSKLRHPSRSQVLRDYLD
B2: Mycobacterium tuberculosis CarD (natural protein)
chain: MIFKVGDTVVYPHHGAALVEAIETRTIKGEQKEYLVLKVAQGDLTVRVPAENAEYVGVRDVVGQEGLDKVFQVLRAPHTEEPTNWSRRYKANLEKLASGDVNKVAEVVRDLWRRDQERGLSAGEKRMLAKARQILVGELALAESTDDAKAETILDEVLAAAS
B3: Mycobacterium tuberculosis WhiB7 (6His-WhiB7) (natural protein)
chain: MSVLTVPRQTPRQRLPVLPCHVGDPDLWFADTPAGLEVAKTLCVSCPIRRQCLAAALQRAEPWGVWGGEIFDQGSIVSHKRPRGRPRKDAVA
B4: Mycobacterium tuberculosis RbpA (co-expressed with σ^A) (natural protein)
chain: MADRVLRGSRLGAVSYETDRNHDLAPRQIARYRTDNGEEFEVPFADDAEIPGTWLCRNGMEGTLIEGDLPEPKKVKPPRTHWDMLLERRSIEELEELLKERLELIRSRRRG
B5: Mycobacterium tuberculosis RbpA (expressed alone from pET20b) (natural protein)
chain: B4 chain

Experiments:
Assay in all cases: cryo-EM structure
[1] = molecular target: Mycobacterium tuberculosis RNA polymerase β’ subunit (M. tuberculosis, UniProt P9WGY7)
[2] = molecular target: T1, Mycobacterium tuberculosis RNA polymerase β subunit (M. tuberculosis, UniProt P9WGY9 1-1178)
T1 sequence: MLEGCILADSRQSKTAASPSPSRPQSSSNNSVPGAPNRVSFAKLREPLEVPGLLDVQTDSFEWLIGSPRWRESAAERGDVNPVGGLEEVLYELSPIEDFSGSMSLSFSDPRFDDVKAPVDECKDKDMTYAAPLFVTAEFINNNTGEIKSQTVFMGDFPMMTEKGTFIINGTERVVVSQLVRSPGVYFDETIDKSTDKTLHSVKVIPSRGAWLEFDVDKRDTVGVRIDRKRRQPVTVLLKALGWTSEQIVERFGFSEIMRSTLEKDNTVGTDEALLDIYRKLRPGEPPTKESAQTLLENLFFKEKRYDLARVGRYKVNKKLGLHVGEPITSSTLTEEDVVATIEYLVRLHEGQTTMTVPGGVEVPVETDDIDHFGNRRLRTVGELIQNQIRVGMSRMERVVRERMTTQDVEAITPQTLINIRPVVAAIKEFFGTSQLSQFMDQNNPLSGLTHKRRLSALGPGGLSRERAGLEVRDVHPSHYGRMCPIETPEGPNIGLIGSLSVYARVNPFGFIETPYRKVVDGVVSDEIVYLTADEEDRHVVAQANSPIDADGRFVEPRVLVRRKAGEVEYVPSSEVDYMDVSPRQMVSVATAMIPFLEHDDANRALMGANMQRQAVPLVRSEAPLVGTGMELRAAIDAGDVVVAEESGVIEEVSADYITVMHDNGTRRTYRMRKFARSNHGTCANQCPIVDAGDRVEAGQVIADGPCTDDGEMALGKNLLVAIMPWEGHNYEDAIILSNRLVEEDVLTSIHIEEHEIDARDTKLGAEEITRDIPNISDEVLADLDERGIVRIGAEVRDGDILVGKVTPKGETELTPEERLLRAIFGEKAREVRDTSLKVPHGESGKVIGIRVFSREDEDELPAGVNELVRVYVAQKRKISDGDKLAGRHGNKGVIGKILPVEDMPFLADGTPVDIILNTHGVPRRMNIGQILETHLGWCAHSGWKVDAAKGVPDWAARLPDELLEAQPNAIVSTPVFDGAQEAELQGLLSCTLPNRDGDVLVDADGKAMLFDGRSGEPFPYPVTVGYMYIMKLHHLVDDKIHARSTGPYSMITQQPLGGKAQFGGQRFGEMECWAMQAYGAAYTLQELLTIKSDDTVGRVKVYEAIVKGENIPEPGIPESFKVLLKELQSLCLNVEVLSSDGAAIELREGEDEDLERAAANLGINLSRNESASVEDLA

[3] = molecular target: B1
[4] = molecular target: T2, Mycobacterium tuberculosis σ^A (co-expressed with RbpA) (M. tuberculosis, UniProt P9WGI1)
T2 sequence: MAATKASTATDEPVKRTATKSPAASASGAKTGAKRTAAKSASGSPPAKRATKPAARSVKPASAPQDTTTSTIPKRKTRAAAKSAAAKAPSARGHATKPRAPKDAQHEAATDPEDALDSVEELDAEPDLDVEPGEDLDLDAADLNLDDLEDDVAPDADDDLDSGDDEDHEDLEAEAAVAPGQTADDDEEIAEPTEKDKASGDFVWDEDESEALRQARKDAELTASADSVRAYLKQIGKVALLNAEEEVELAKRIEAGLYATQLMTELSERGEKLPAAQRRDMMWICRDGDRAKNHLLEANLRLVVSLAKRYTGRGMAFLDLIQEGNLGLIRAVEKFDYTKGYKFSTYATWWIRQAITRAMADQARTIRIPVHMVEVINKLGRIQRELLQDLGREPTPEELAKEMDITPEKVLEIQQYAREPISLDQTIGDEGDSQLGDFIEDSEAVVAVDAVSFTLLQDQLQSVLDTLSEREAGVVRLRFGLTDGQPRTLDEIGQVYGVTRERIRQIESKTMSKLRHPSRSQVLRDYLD

Row | Binder | binding result [1] | binding result [2] | binding result [3] | binding result [4]
1 | B1 | binds | binds |  | 
2 | B2 |  | binds |  | 
3 | B3 | binds |  | binds | 
4 | B4 |  |  |  | binds
5 | B5 |  |  | binds | 

From article PMC8311663 (Molecular cell, 2021)
